These results are taken from patent US20150284723A1 (MEDICAL DIAGNOSTIC LABORATORIES, published 2015).

Assay [1] has as its target protein phosphatase 2A (PP2A). Description: cell-based or functional assay.
Assay [2] has as its target T1, FLAG-tagged PME-1 (wild-type protein methylesterase 1) (human, UniProt Q9Y570 1-386).
T1 construct: Expressed in stably transfected ECC-1 cells and pulled down with FLAG resin; also called FLAG-PME-1; not shown: FLAG tag
T1 sequence (looked up): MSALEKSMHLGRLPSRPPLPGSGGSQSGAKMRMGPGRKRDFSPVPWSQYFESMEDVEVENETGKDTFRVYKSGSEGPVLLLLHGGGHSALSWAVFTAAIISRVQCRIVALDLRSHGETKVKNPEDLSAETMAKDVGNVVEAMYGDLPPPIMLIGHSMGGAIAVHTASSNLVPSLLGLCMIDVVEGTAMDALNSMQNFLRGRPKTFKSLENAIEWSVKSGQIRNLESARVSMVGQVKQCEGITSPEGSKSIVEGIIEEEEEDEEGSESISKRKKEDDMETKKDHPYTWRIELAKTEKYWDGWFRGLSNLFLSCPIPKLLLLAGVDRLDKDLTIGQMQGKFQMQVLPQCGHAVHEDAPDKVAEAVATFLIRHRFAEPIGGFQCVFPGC
The assay is described as follows: FLAG co-immunoprecipitation from ECC-1 lysate, Western blot with anti-Ppp6c. The source says: (§1) Cells (post-transfection) were collected and cellular protein was extracted. Input depicts the relative expression of each protein in total cell lysate, whereas the elution depicts proteins that were immunoprecipitated with FLAG resin.
(§2) There are other protein phosphatases in the same family as PP2A in cells that share some similarity to PP2A. In this experiment, we examined if PME-1 binding to Ppp2ca is specific over other phosphatases. We chose to examine phosphatase 4 (PP4) and phosphatase 6 (PP6) since the C-terminal tail of the catalytic subunit of PP2A (i.e., Ppp2ca) is TPDYFL (amino acids 304-309 of SEQ ID NO: 12) (the substrate for PME-1 demethylation) is similar to that of protein phosphatase 4 (i.e., Ppp4c) (VADYFL) (amino acids 302-307 of SEQ ID NO: 13) and phosphatase 6 (i.e., Ppp6c), (TTPYFL) (amino acids 300-305 of SEQ ID NO: 14), respectively. Specifically, we examined if PME-1 may bind and demethylate PP4 or PP6.

For assay [3], the target named is T2, FLAG-tagged PME-1 S156A (catalytically inactive mutant) (human, UniProt Q9Y570 1-386).
T2 construct: Expressed in stably transfected ECC-1 cells and pulled down with FLAG resin; also called FLAG-PME-1 S156A; FLAG PME-1 S156A; not shown: FLAG tag
T2 sequence (looked up): T1 sequence (looked up) with S156A
The assay is described as above.
Excerpt: as §1, §2

Substitutions are numbered along the chain they refer to.

As for “PME-1 protein (endogenous, over-expressed or depleted in cells) (from UniProt Q9Y570 2-386) (enzyme)”, in assay [1], the PP2A phosphatase activity (RL95-2 cells over-expressing PME-1) stood at 90 % decrease and the PP2A phosphatase activity (RL95-2 cells, shRNA against PPME1) (fold increase) amounted to 30.

B1: Ppp6c, the catalytic subunit of PP6 (endogenous) (enzyme)
chain: MAPLDLDKYVEIARLCKYLPENDLKRLCDYVCDLLLEESNVQPVSTPVTVCGDIHGQFYDLCELFRTGGQVPDTNYIFMGDFVDRGYYSLETFTYLLALKAKWPDRITLLRGNHESRQITQVYGFYDECQTKYGNANAWRYCTKVFDMLTVAALIDEQILCVHGGLSPDIKTLDQIRTIERNQEIPHKGAFCDLVWSDPEDVDTWAISPRGAGWLFGAKVTNEFVHINNLKLICRAHQLVHEGYKFMFDEKLVTVWSAPNYCYRCGNIASIMVFKDVNTREPKLFRAVPDSERVIPPRTTTPYFL
notes: Endogenous protein in the lysate of the human ECC-1 cell line; also called phosphatase 6
Consider B1, for which the binding result in assay [2] and in assay [3] was “no binding” in each case.
